Drawing on patent US20160272683A1 (Novo Nordisk, published 2016), this text covers IC50 for 3 molecules.

Numbered stars: 1 amine (or outer) side, 2 acyl side, 3 side chain; on linkers, the order of the positions; unused ones are H or OH. * marks the point of attachment. C20 diacid = O=C(O)CCCCCCCCCCCCCCCCCCC(=O)*; γGlu = O=C(O)[C@H](CCC(=O)[*:2])N[*:1]

The IC50 is the concentration at which inhibition is half-maximal.

Assay [1] addresses T1, human amylin receptor (human calcitonin receptor + human RAMP3) (human) (UniProt P30988).
T1 sequence (looked up) 1: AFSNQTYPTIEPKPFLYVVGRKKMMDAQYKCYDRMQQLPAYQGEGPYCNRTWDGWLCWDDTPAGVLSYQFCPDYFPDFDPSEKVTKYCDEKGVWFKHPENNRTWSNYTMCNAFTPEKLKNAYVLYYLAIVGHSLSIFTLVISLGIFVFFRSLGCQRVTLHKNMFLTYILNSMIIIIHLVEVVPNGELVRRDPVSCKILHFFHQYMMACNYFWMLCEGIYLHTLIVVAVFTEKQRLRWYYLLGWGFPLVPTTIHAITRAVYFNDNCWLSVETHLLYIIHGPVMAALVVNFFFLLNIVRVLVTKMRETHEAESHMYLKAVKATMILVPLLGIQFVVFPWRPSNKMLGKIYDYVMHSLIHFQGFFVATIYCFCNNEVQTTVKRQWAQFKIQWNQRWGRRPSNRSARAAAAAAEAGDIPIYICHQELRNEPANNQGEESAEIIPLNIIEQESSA
T1 sequence (looked up) 2: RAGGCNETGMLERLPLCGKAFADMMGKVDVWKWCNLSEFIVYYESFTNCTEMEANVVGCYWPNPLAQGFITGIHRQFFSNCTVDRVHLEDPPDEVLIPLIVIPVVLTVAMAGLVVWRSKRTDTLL
As to the kind of experiment: whole-cell competition vs 125I-rat amylin (Assay Va).

For assay [2], the target named is rat amylin receptor (rat calcitonin receptor with rat RAMP 3) (rat) (UniProt P32214). Put plainly: SPA competition vs 125I-rat amylin, membranes with rat CTR + rat RAMP3 (Assay VI).
Assay [3] concerns the target rat calcitonin receptor (rat) (UniProt P32214). As to the kind of experiment: SPA competition vs 125I-calcitonin, membranes with rat CTR (Assay VIII).

B1: [N-terminal(C20 diacid-gGlu), des1, 23Y, 30S, 31G]mimylin (peptide)
peptide: {C20 diacid-γGlu}-ASELSTAALGRLSAELHELATYPRTETGSGSP-NH2
SMILES: CC(C)C[C@H](NC(=O)[C@H](C)NC(=O)[C@H](C)NC(=O)[C@@H](NC(=O)[C@H](CO)NC(=O)[C@H](CC(C)C)NC(=O)[C@H](CCC(=O)O)NC(=O)[C@H](CO)NC(=O)[C@H](C)NC(=O)CC[C@H](NC(=O)CCCCCCCCCCCCCCCCCCC(=O)O)C(=O)O)[C@@H](C)O)C(=O)NCC(=O)N[C@@H](CCCNC(=N)N)C(=O)N[C@@H](CC(C)C)C(=O)N[C@@H](CO)C(=O)N[C@@H](C)C(=O)N[C@@H](CCC(=O)O)C(=O)N[C@@H](CC(C)C)C(=O)N[C@@H](Cc1c[nH]cn1)C(=O)N[C@@H](CCC(=O)O)C(=O)N[C@@H](CC(C)C)C(=O)N[C@@H](C)C(=O)N[C@H](C(=O)N[C@@H](Cc1ccc(O)cc1)C(=O)N1CCC[C@H]1C(=O)N[C@@H](CCCNC(=N)N)C(=O)N[C@H](C(=O)N[C@@H](CCC(=O)O)C(=O)N[C@H](C(=O)NCC(=O)N[C@@H](CO)C(=O)NCC(=O)N[C@@H](CO)C(=O)N1CCC[C@H]1C(N)=O)[C@@H](C)O)[C@@H](C)O)[C@@H](C)O
Regarding B1, the IC50 in assay [1] worked out at 2.61 nM; in assay [2], 3.99 nM; in assay [3], 0.202 nM.

B2: [N-terminal(C20 diacid-gGlu), des1, 4G, 9T, 15Q, 21Q, 23Y, 25P, 30S, 31G, 32T, 33Y]mimylin (peptide)
peptide: {C20 diacid-γGlu}-ASGLSTATLGRLSQELHELQTYPPTETGSGTY-NH2
SMILES: CC(C)C[C@H](NC(=O)CNC(=O)[C@H](CO)NC(=O)[C@H](C)NC(=O)CC[C@H](NC(=O)CCCCCCCCCCCCCCCCCCC(=O)O)C(=O)O)C(=O)N[C@@H](CO)C(=O)N[C@H](C(=O)N[C@@H](C)C(=O)N[C@H](C(=O)N[C@@H](CC(C)C)C(=O)NCC(=O)N[C@@H](CCCNC(=N)N)C(=O)N[C@@H](CC(C)C)C(=O)N[C@@H](CO)C(=O)N[C@@H](CCC(N)=O)C(=O)N[C@@H](CCC(=O)O)C(=O)N[C@@H](CC(C)C)C(=O)N[C@@H](Cc1c[nH]cn1)C(=O)N[C@@H](CCC(=O)O)C(=O)N[C@@H](CC(C)C)C(=O)N[C@@H](CCC(N)=O)C(=O)N[C@H](C(=O)N[C@@H](Cc1ccc(O)cc1)C(=O)N1CCC[C@H]1C(=O)N1CCC[C@H]1C(=O)N[C@H](C(=O)N[C@@H](CCC(=O)O)C(=O)N[C@H](C(=O)NCC(=O)N[C@@H](CO)C(=O)NCC(=O)N[C@H](C(=O)N[C@@H](Cc1ccc(O)cc1)C(N)=O)[C@@H](C)O)[C@@H](C)O)[C@@H](C)O)[C@@H](C)O)[C@@H](C)O)[C@@H](C)O
As for B2, the IC50 in assay [1] was 0.116 nM; in assay [2], 0.098 nM; in assay [3], 0.028 nM.

B3: [N-terminal(C20 diacid-gGlu), des1, 4Q, 9V, 15Q, 16R, 19R, 21Q, 23Y, 27Q, 30S, 31Q, 32T, 33Y]mimylin (peptide)
peptide: {C20 diacid-γGlu}-ASQLSTAVLGRLSQRLHRLQTYPRTQTGSQTY-NH2
SMILES: CC(C)C[C@H](NC(=O)[C@H](CCCNC(=N)N)NC(=O)CNC(=O)[C@H](CC(C)C)NC(=O)[C@@H](NC(=O)[C@H](C)NC(=O)[C@@H](NC(=O)[C@H](CO)NC(=O)[C@H](CC(C)C)NC(=O)[C@H](CCC(N)=O)NC(=O)[C@H](CO)NC(=O)[C@H](C)NC(=O)CC[C@H](NC(=O)CCCCCCCCCCCCCCCCCCC(=O)O)C(=O)O)[C@@H](C)O)C(C)C)C(=O)N[C@@H](CO)C(=O)N[C@@H](CCC(N)=O)C(=O)N[C@@H](CCCNC(=N)N)C(=O)N[C@@H](CC(C)C)C(=O)N[C@@H](Cc1c[nH]cn1)C(=O)N[C@@H](CCCNC(=N)N)C(=O)N[C@@H](CC(C)C)C(=O)N[C@@H](CCC(N)=O)C(=O)N[C@H](C(=O)N[C@@H](Cc1ccc(O)cc1)C(=O)N1CCC[C@H]1C(=O)N[C@@H](CCCNC(=N)N)C(=O)N[C@H](C(=O)N[C@@H](CCC(N)=O)C(=O)N[C@H](C(=O)NCC(=O)N[C@@H](CO)C(=O)N[C@@H](CCC(N)=O)C(=O)N[C@H](C(=O)N[C@@H](Cc1ccc(O)cc1)C(N)=O)[C@@H](C)O)[C@@H](C)O)[C@@H](C)O)[C@@H](C)O
For B3, the IC50 came to 3.7 nM in assay [1], 1.16 nM in assay [2] and 0.069 nM in assay [3].
